Results as given in the Immune Epitope Database (IEDB).

Key:
HLA-A*32:01 = assay: IEDB peptide-MHC binding, purified MHC/competitive/radioactivity; filed as Kd, often an IC50 or EC50 that approximates it; ≥ and ≤ were set here for values at or beyond the usual limits of such assays
HLA-A*02:01 [1] = assay: IEDB peptide-MHC binding, purified MHC/competitive/fluorescence; ≥ and ≤ were set here for values at or beyond the usual limits of such assays
HLA-A*29:02 = assay: IEDB peptide-MHC binding, purified MHC/competitive/radioactivity; filed as Kd, often an IC50 or EC50 that approximates it; ≥ and ≤ were set here for values at or beyond the usual limits of such assays
HLA-A*23:01 = assay: as above
HLA-A*26:01 = assay: as above
HLA-A*24:02 = assay: as above
HLA-A*30:02 = assay: as above
HLA-A*01:01 = assay: as above
HLA-B*07:02 = assay: IEDB peptide-MHC binding, purified MHC/direct/fluorescence; filed as Kd, often an IC50 or EC50 that approximates it; ≥ and ≤ were set here for values at or beyond the usual limits of such assays; settings: source organism: SARS-CoV1
HLA-A*11:01 [2] = assay: as above; settings: source organism: SARS-CoV1
HLA-A*69:01 = assay: as above
HLA-A*02:01 [3] = assay: as above
HLA-A*33:01 = assay: IEDB peptide-MHC binding, purified MHC/competitive/radioactivity; filed as Kd, often an IC50 or EC50 that approximates it; ≥ and ≤ were set here for values at or beyond the usual limits of such assays
HLA-A*31:01 = assay: as above
HLA-A*11:01 [4] = assay: as above; settings: source organism: SARS coronavirus Tor2
HLA-A*03:01 = assay: as above; settings: source organism: SARS coronavirus Tor2
HLA-A*68:01 = assay: as above; settings: source organism: SARS coronavirus Tor2
[5] = source organism: Vaccinia virus WR
[6] = source organism: Dengue virus 3 Martinique/1243/1999
[7] = source organism: Zaire ebolavirus
[8] = source organism: SARS coronavirus Tor2
[9] = source organism: Mammarenavirus machupoense
[10] = source organism: Rickettsia conorii
[11] = source organism: Dengue virus 4 Philippines/H241/1956
[12] = source organism: Influenza A virus (A/Wilson-Smith/1933(H1N1))
[13] = source organism: Dengue virus 2 Jamaica/1409/1983
[14] = source organism: Camelpox virus M-96
[15] = source organism: Lassa virus Josiah

Sequence | Kd (HLA-A*29:02; [8]) | Kd (HLA-A*23:01; [8]) | Kd (HLA-A*26:01; [8]) | Kd (HLA-A*24:02; [8]) | Kd (HLA-A*30:02; [8]) | Kd (HLA-A*01:01; [8]) | further results
MGLDKGWPIS |  |  |  |  |  |  | Kd (HLA-A*32:01; source organism: Dengue virus 1 Brazil/97-11/1997): 10.1 µM
HTILYNNTI |  |  |  |  |  |  | Kd (HLA-A*32:01; [5]): 0.00188 µM
QLLLMRTSW |  |  |  |  |  |  | Kd (HLA-A*32:01; [6]): 0.0104 µM
KLDISEATQ |  |  |  |  |  |  | IC50 (HLA-A*02:01 [1]; [7]): ≥ 96.7 µM
MLNYVDYNI |  |  |  |  |  |  | Kd (HLA-A*32:01; [5]): 0.00159 µM
GTFKKSGAI |  |  |  |  |  |  | Kd (HLA-A*32:01; [6]): 4.93 µM
PVSAMVRMY | 2.73 µM | ≥ 39.2 µM | ≥ 36.7 µM | ≥ 40.9 µM | 9.13 µM | 11.4 µM | 
LCEEGKVCY |  |  |  |  |  |  | Kd (HLA-A*29:02; [9]): ≥ 45.4 µM; Kd (HLA-A*23:01; [9]): ≥ 31.6 µM; Kd (HLA-A*26:01; [9]): ≥ 77.9 µM; Kd (HLA-A*24:02; [9]): ≥ 77.5 µM; Kd (HLA-A*30:02; [9]): 14.2 µM; Kd (HLA-A*01:01; [9]): 7.83 µM
RVRFFFPSL |  |  |  |  |  |  | IC50 (HLA-A*02:01 [1]; source organism: Homo sapiens): ≥ 200 µM
ITYEKSNNI |  |  |  |  |  |  | Kd (HLA-A*32:01; [5]): 0.0175 µM
CTFLLNKEMY | 0.789 µM | ≥ 70 µM | 9.38 µM | ≥ 70.3 µM | 0.412 µM | 0.793 µM | 
TPSGTWLTY | 0.0555 µM | ≥ 77.8 µM | 18.6 µM | ≥ 77.6 µM | 11.8 µM | ≥ 79.4 µM | Kd (HLA-B*07:02): 7.02 µM; Kd (HLA-A*11:01 [2]): 4.57 µM
HTLSIHDGY | 0.00179 µM | ≥ 77.8 µM | 0.016 µM | ≥ 77.6 µM | 0.000411 µM | 1.5 µM | 
DLAAGVDVV |  |  |  |  |  |  | Kd (HLA-A*69:01; [10]): 1.46 µM; Kd (HLA-A*02:01 [3]; [10]): 3.24 µM
ETPHLMGWDY | 0.0927 µM | ≥ 70 µM | 0.00491 µM | ≥ 70.3 µM | 0.696 µM | 0.301 µM | 
ELDHLGLDD |  |  |  |  |  |  | IC50 (HLA-A*02:01 [1]; [7]): ≥ 513 µM

Sequence | Kd (HLA-A*29:02; [8]) | Kd (HLA-A*23:01; [8]) | Kd (HLA-A*26:01; [8]) | Kd (HLA-A*24:02; [8]) | Kd (HLA-A*30:02; [8]) | Kd (HLA-A*01:01; [8]) | further results
MFGGVSWMVR |  |  |  |  |  |  | Kd (HLA-A*32:01; [11]): 0.952 µM; Kd (HLA-A*33:01; [11]): 0.00459 µM; Kd (HLA-A*31:01; [11]): 0.0172 µM
STGNYNYKY | 0.0372 µM | ≥ 77.8 µM | 15.6 µM | ≥ 77.6 µM | 0.0245 µM | 0.388 µM | Kd (HLA-A*33:01; [8]): ≥ 77.7 µM; Kd (HLA-A*11:01 [4]): 0.198 µM; Kd (HLA-A*31:01; [8]): ≥ 77.9 µM; Kd (HLA-A*03:01): ≥ 20.4 µM; Kd (HLA-A*68:01): 1.6 µM
TVATSRTLSY | 0.1 µM | ≥ 70 µM | 0.0779 µM | ≥ 70.3 µM | 0.822 µM | 0.341 µM | 
EYPIIGDEL | 0.176 µM | 16.2 µM | ≥ 77.9 µM | 14.1 µM | 1.33 µM | ≥ 78.1 µM | 
ASFYYIWKSY | 0.0714 µM | ≥ 32.1 µM | 2.1 µM | ≥ 28.6 µM | 0.000481 µM | 3.11 µM | 
GTFLCANEY | 0.00383 µM | ≥ 36.4 µM | 0.262 µM | 11.4 µM | 0.000406 µM | 0.0974 µM | 
TAIAGAWENG |  |  |  |  |  |  | Kd (HLA-A*32:01; [6]): ≥ 60.5 µM
QFLLQLNET |  |  |  |  |  |  | IC50 (HLA-A*02:01 [1]; [7]): 16.1 µM
DQHGRMNYYW |  |  |  |  |  |  | Kd (HLA-A*29:02; [12]): 2.17 µM; Kd (HLA-A*23:01; [12]): 1.11 µM; Kd (HLA-A*26:01; [12]): 0.661 µM; Kd (HLA-A*24:02; [12]): 1.47 µM; Kd (HLA-A*30:02; [12]): ≥ 69.8 µM; Kd (HLA-A*01:01; [12]): ≥ 70.4 µM
MEVTARWLWG |  |  |  |  |  |  | Kd (HLA-A*32:01; source organism: Dengue virus 1 Singapore/S275/1990): 3.72 µM
LDISEATQV |  |  |  |  |  |  | IC50 (HLA-A*02:01 [1]; [7]): ≥ 72.6 µM
ETRTETWMSS |  |  |  |  |  |  | Kd (HLA-A*32:01; [13]): 12.8 µM; Kd (HLA-A*26:01; [13]): 0.693 µM
ITQFETYQL |  |  |  |  |  |  | Kd (HLA-A*32:01; [6]): 1.63 µM
DLYDYITRI |  |  |  |  |  |  | Kd (HLA-A*69:01; [14]): 0.0353 µM; Kd (HLA-A*02:01 [3]; [14]): 0.101 µM
KCWLVSNGSY |  |  |  |  |  |  | Kd (HLA-A*29:02; [15]): 1.53 µM; Kd (HLA-A*23:01; [15]): ≥ 70 µM; Kd (HLA-A*26:01; [15]): ≥ 69.7 µM; Kd (HLA-A*24:02; [15]): ≥ 70.3 µM; Kd (HLA-A*30:02; [15]): 0.0114 µM; Kd (HLA-A*01:01; [15]): 11.5 µM
